The record followed here is US20250066745A1, “MUTANTS AND USE THEREOF” (BGI SHENZHEN, priority 2021, published 2025).

Where a chain is given by its changes, count along the chain named. Names may count otherwise.

Holding throughout (assay type): biochemical
What all share (set-up): key to Activity of mutant relative to wild-type Gaussia luciferase without the signal peptide: ratio of mutant luminescence intensity to wild-type Gaussia luciferase

Assay [1] in a line: Luminescence activity assay of purified Gaussia luciferase mutants on coelenterazine. The conditions noted are these: Substrate CTZ (Table 16). In a few lines: (§1)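 Readout: luminescence intensity, as ratio to signal-peptide-free wild-type enzyme. Enzyme 1 μg/mL, substrate 100 μM stock, 10 μL + 90 μL; buffer 50 mM Tris-HCl pH 8.0, 100 mM NaCl, 0.1% Tween-20.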
Assay [2] is described as follows: Luminescence activity assay of purified Gaussia luciferase mutants on fluoro-coelenterazine. To be noted: Substrate f-CTZ (Table 16). Put shortly:
as §1

Assay [3] is described as follows: Luminescence activity assay of purified Gaussia luciferase mutants on coelenterazine derivative ZS2. The conditions noted are these: Substrate ZS2 (Table 16). Put shortly:
as §1

B1: F26C N27D A30D A32V S33R A36T: Gaussia luciferase mutant (protein)
chain: MGVKVLFALICIAVAEAKPTENNEDCDIVDVVRNFTTTDLDADRGKLPGKKLPLEVLKEMEANARKAGCTRGCLICLSHIKCTPKMKKFIPGRCHTYEGDKESAQGGIGEAIVDIPEIPGFKDLEPMEQFIAQVDLCVDCTTGCLKGLANVQCSDLLKKWLPQRCATFASKIQGQVDKIKGAGGD
modifications: SIGNAL (1)..(17)
notes: Gaussia luciferase mutant
With B1, the “Activity of mutant relative to wild-type Gaussia luciferase without the signal peptide” value in assay [1] came to 0.126; in assay [2] it was 0.130; in assay [3], 0.166.

B2: F26C N27D A30V V31L A32G S33I A36V T37M L40G: Gaussia luciferase mutant (protein)
chain: B1 chain with D30V, V31L, V32G, R33I, T36V, T37M, L40G
modifications: SIGNAL (1)..(17)
notes: Gaussia luciferase mutant
Consider B2, for which the “Activity of mutant relative to wild-type Gaussia luciferase without the signal peptide” value in assay [1] turned out to be 0.054; in assay [2] it was 0.065; in assay [3], 0.086.

B3: F26C N27D V29L A32V A36I T37A L40I: Gaussia luciferase mutant (protein)
chain: B1 chain with V29L, D30A, R33S, T36I, T37A, L40I
modifications: SIGNAL (1)..(17)
notes: Gaussia luciferase mutant
As for B3, the “Activity of mutant relative to wild-type Gaussia luciferase without the signal peptide” value in assay [1] is reported as 0.203; in assay [2], 0.141; in assay [3], 0.166.

B4: Q152H Q163T T167G S170D G174N A182M G183A: Gaussia luciferase mutant (protein)
chain: MGVKVLFALICIAVAEAKPTENNEDFNIVAVASNFATTDLDADRGKLPGKKLPLEVLKEMEANARKAGCTRGCLICLSHIKCTPKMKKFIPGRCHTYEGDKESAQGGIGEAIVDIPEIPGFKDLEPMEQFIAQVDLCVDCTTGCLKGLANVHCSDLLKKWLPTRCAGFADKIQNQVDKIKGMAGD
modifications: SIGNAL (1)..(17)
notes: Gaussia luciferase mutant
Turning to B4, the “Activity of mutant relative to wild-type Gaussia luciferase without the signal peptide” value in assay [1] is reported as 0.080; in assay [2], 0.478; in assay [3] it was 0.001.

B5: Q152R Q163S T167S S170D G174K Q175E K178N A182M: Gaussia luciferase mutant (protein)
chain: B4 chain with H152R, T163S, G167S, N174K, Q175E, K178N, A183G
modifications: SIGNAL (1)..(17)
notes: Gaussia luciferase mutant
Regarding B5, the “Activity of mutant relative to wild-type Gaussia luciferase without the signal peptide” value in assay [1] amounted to 4.609; in assay [2], 1.020; in assay [3], 3.139.

B6: Q152H S170D Q175E A182Y: Gaussia luciferase mutant (protein)
chain: B4 chain with T163Q, G167T, N174G, Q175E, M182Y, A183G
modifications: SIGNAL (1)..(17)
notes: Gaussia luciferase mutant
For the molecule B6, the “Activity of mutant relative to wild-type Gaussia luciferase without the signal peptide” value turned out to be 0.615 in assay [1], 0.583 in assay [2] and 0.723 in assay [3].

B7: Q152H Q163T T167G S170N Q175E A182L G183A: Gaussia luciferase mutant (protein)
chain: B4 chain with D170N, N174G, Q175E, M182L
modifications: SIGNAL (1)..(17)
notes: Gaussia luciferase mutant
On to B7, for which the “Activity of mutant relative to wild-type Gaussia luciferase without the signal peptide” value in assay [1] stood at 0.177; in assay [2] it was 0.172; in assay [3] it was 0.087.

B8: Q152K Q163S T167S S170N G174N K178S A182Y G183A: Gaussia luciferase mutant (protein)
chain: B4 chain with H152K, T163S, G167S, D170N, K178S, M182Y
modifications: SIGNAL (1)..(17)
notes: Gaussia luciferase mutant
For B8, the results for the “Activity of mutant relative to wild-type Gaussia luciferase without the signal peptide” value in assay [1], in assay [2] and in assay [3] were 0.906, 1.175 and 0.819, respectively.

B9: Q163T T167S S170V G174N K178N A182Y G183A: Gaussia luciferase mutant (protein)
chain: B4 chain with H152Q, G167S, D170V, K178N, M182Y
modifications: SIGNAL (1)..(17)
notes: Gaussia luciferase mutant
Regarding B9, the “Activity of mutant relative to wild-type Gaussia luciferase without the signal peptide” value in assay [1] was determined as 0.170; in assay [2], 0.135; in assay [3] it was 0.138.

B10: Q152K Q163S T167G S170V G174K Q175E K180: Gaussia luciferase mutant (protein)
chain: B4 chain with H152K, T163S, D170V, N174K, Q175E, M182A, A183G
B10: the entries for the “Activity of mutant relative to wild-type Gaussia luciferase without the signal peptide” value in assay [1], in assay [2] and in assay [3] were 0.011, 0.512 and 0.136, respectively.

B11: Q152R Q163S T167G S170T G174K K178S A182M G183A: Gaussia luciferase mutant (protein)
chain: B4 chain with H152R, T163S, D170T, N174K, K178S
modifications: SIGNAL (1)..(17)
notes: Gaussia luciferase mutant
For the molecule B11, the figures for the “Activity of mutant relative to wild-type Gaussia luciferase without the signal peptide” value in assay [1], in assay [2] and in assay [3] were 1.171, 1.864 and 2.367, respectively.

B12: Q152K Q163T S170N G174N K178S A182Y G183A: Gaussia luciferase mutant (protein)
chain: B4 chain with H152K, G167T, D170N, K178S, M182Y
modifications: SIGNAL (1)..(17)
notes: Gaussia luciferase mutant
As to B12, the “Activity of mutant relative to wild-type Gaussia luciferase without the signal peptide” value amounted to 0.194 in assay [1], 0.299 in assay [2] and 0.026 in assay [3].

B13: Q152H S170D G174S K178T A182L: Gaussia luciferase mutant (protein)
chain: B4 chain with T163Q, G167T, N174S, K178T, M182L, A183G
modifications: SIGNAL (1)..(17)
notes: Gaussia luciferase mutant
Take B13: the “Activity of mutant relative to wild-type Gaussia luciferase without the signal peptide” value in assay [1] worked out at 4.938; in assay [2], 2.069; in assay [3], 2.672.

B14: Q152R T167G G174S Q175E K178N A182Y G183A: Gaussia luciferase mutant (protein)
chain: B4 chain with H152R, T163Q, D170S, N174S, Q175E, K178N, M182Y
modifications: SIGNAL (1)..(17)
notes: Gaussia luciferase mutant
With B14, the figures for the “Activity of mutant relative to wild-type Gaussia luciferase without the signal peptide” value in assay [1], in assay [2] and in assay [3] were 0.703, 0.404 and 0.481, respectively.

B15: E102K S103T A104G E110G V138D: Gaussia luciferase mutant (protein)
chain: MGVKVLFALICIAVAEAKPTENNEDFNIVAVASNFATTDLDADRGKLPGKKLPLEVLKEMEANARKAGCTRGCLICLSHIKCTPKMKKFIPGRCHTYEGDKKTGQGGIGGAIVDIPEIPGFKDLEPMEQFIAQVDLCDDCTTGCLKGLANVQCSDLLKKWLPQRCATFASKIQGQVDKIKGAGGD
modifications: SIGNAL (1)..(17)
notes: Gaussia luciferase mutant
For B15, the “Activity of mutant relative to wild-type Gaussia luciferase without the signal peptide” value in assay [1] was determined as 0.106; in assay [2], 4.919; in assay [3] it was 0.065.

B16: S103I A104G E110G L124M V138D: Gaussia luciferase mutant (protein)
chain: B15 chain with K102E, T103I, L124M
modifications: SIGNAL (1)..(17)
notes: Gaussia luciferase mutant
Turning to B16, the entries for the “Activity of mutant relative to wild-type Gaussia luciferase without the signal peptide” value in assay [1], in assay [2] and in assay [3] were 1.165, 1.701 and 1.337, respectively.

B17: E102K S103T A104G E110G V138D I172: Gaussia luciferase mutant (protein)
chain: B15 chain
Turning to B17, the “Activity of mutant relative to wild-type Gaussia luciferase without the signal peptide” value in assay [1] worked out at 0.622; in assay [2], 2.719; in assay [3] it was 0.550.
